According to the Immune Epitope Database (IEDB):
pIC50, pKd: −log10 of the molar value. Blank lines part the entries; values can stand above or below the sequence they belong to.

Legend:
HLA-A*02:02 = assay: IEDB peptide-MHC binding, purified MHC/competitive/radioactivity; filed as Kd, often an IC50 or EC50 that approximates it; ≥ and ≤ were set here for values at or beyond the usual limits of such assays
HLA-A*68:02 = assay: as above
HLA-A*02:06 = assay: as above
HLA-A*02:03 [1] = assay: as above
HLA-A*26:01 = assay: as above; conditions: source organism: Dengue virus 2 Jamaica/1409/1983
HLA-A*68:01 = assay: as above; conditions: source organism: Vaccinia virus WR
HLA-A*03:01 [2] = assay: as above; conditions: source organism: Vaccinia virus WR
HLA-A*02:01 [3] = assay: as above
HLA-A*11:01 [4] = assay: as above; conditions: source organism: Vaccinia virus WR
HLA-B*35:01 = assay: as above; conditions: source organism: Vaccinia virus WR
HLA-B*51:01 = assay: as above
HLA-B*53:01 = assay: as above; conditions: source organism: Vaccinia virus WR
HLA-B*54:01 = assay: as above; conditions: source organism: Vaccinia virus WR
HLA-A*31:01 = assay: as above; conditions: source organism: Vaccinia virus WR
HLA-A*33:01 = assay: as above; conditions: source organism: Vaccinia virus WR
HLA-B*07:02 = assay: as above; conditions: source organism: Vaccinia virus WR
HLA-B*57:01 = assay: as above
HLA-B*08:01 = assay: as above; conditions: source organism: Vaccinia virus WR
HLA-B*15:03 = assay: as above; conditions: source organism: Vaccinia virus WR
HLA-A*32:01 = assay: as above; conditions: source organism: Vaccinia virus WR
HLA-B*15:01 [5] = assay: as above; conditions: source organism: Vaccinia virus WR
HLA-A*30:01 = assay: as above; conditions: source organism: Vaccinia virus WR
HLA-A*03:01 [6] = assay: IEDB peptide-MHC binding, purified MHC/competitive/fluorescence; ≥ and ≤ were set here for values at or beyond the usual limits of such assays
HLA-A*02:01 [7] = assay: as above
HLA-A*11:01 [8] = assay: as above
HLA-B*15:01 [9] = assay: as above
HLA-A*02:01 [10] = assay: IEDB peptide-MHC binding, purified MHC/competitive/fluorescence; filed as Kd, often an IC50 or EC50 that approximates it; ≥ and ≤ were set here for values at or beyond the usual limits of such assays; conditions: source organism: Homo sapiens
HLA-A*69:01 = assay: as above; conditions: source organism: Homo sapiens
HLA-A*02:03 [11] = assay: as above; conditions: source organism: Homo sapiens
HLA-A*24:02 = assay: IEDB peptide-MHC binding, purified MHC/competitive/fluorescence; ≥ and ≤ were set here for values at or beyond the usual limits of such assays
[12] = source organism: Mammarenavirus brazilense
[13] = source organism: Dengue virus 2 Jamaica/1409/1983
[14] = source organism: Vaccinia virus WR
[15] = source organism: Dengue virus 1 Brazil/97-11/1997
[16] = source organism: Vaccinia virus Copenhagen
[17] = source organism: Trypanosoma cruzi
[18] = source organism: Zaire ebolavirus
[19] = source organism: Sudan ebolavirus
[20] = source organism: Dengue virus 4 Dominica/814669/1981
[21] = source organism: Vaccinia virus
[22] = source organism: Dengue virus 3 Martinique/1243/1999

Sequence: AINIALIAV
pKd (HLA-A*02:02; [12]): 6.12 | pKd (HLA-A*68:02; [12]): 5.89 | pKd (HLA-A*02:06; [12]): 6.17 | pKd (HLA-A*02:03 [1]; [12]): 7.33

pKd (HLA-A*68:02; source organism: Homo sapiens): ≤ 4.22
Sequence: ALKTELEDTL

Sequence: EIVDLMCHA
pKd (HLA-A*68:02; [13]): 7.36 | pKd (HLA-A*26:01): 5.80

pKd (HLA-A*68:02; source organism: Homo sapiens): 7.36
Sequence: ETVSEESNV

Sequence: EVVMAYVGIK
pKd (HLA-A*02:02; [14]): 4.92 | pKd (HLA-A*68:01): 8.18 | pKd (HLA-A*03:01 [2]): 6.38 | pKd (HLA-A*02:01 [3]; [14]): 5.40 | pKd (HLA-A*68:02; [14]): 5.59 | pKd (HLA-A*11:01 [4]): 7.01 | pKd (HLA-A*02:06; [14]): 4.82 | pKd (HLA-B*35:01): ≤ 4.63 | pKd (HLA-B*51:01; [14]): ≤ 4.63 | pKd (HLA-B*53:01): 5.17 | pKd (HLA-B*54:01): 5.10 | pKd (HLA-A*31:01): 6.10 | pKd (HLA-A*33:01): 5.93 | pKd (HLA-B*07:02): 5.00 | pKd (HLA-A*02:03 [1]; [14]): 4.80

Sequence: FASGRKSITL
pKd (HLA-B*57:01; source organism: Dengue virus 4 Philippines/H241/1956): 5.21

Sequence: FFKQTFGSL
pKd (HLA-B*08:01): 9.13 | pKd (HLA-B*15:03): 5.97 | pKd (HLA-A*32:01): ≤ 4.25 | pKd (HLA-B*15:01 [5]): 5.81 | pKd (HLA-A*30:01): 6.30

Sequence: FIAFLRFLA
pKd (HLA-A*68:02; [15]): ≥ 9.00

Sequence: FIMLEGETK
pKd (HLA-A*68:01): 7.55 | pKd (HLA-A*31:01): 4.75 | pKd (HLA-A*33:01): 5.36 | pIC50 (HLA-A*03:01 [6]; [16]): ≤ 3.94 | pIC50 (HLA-A*02:01 [7]; [16]): 4.51 | pIC50 (HLA-A*11:01 [8]; [16]): 5.31

Sequence: FVYVPELSF
pKd (HLA-B*15:03): 6.69 | pKd (HLA-B*15:01 [5]): 9.02

Sequence: GERYYFAYI
pKd (HLA-B*08:01): 8.16 | pKd (HLA-B*15:03): 6.62 | pKd (HLA-A*32:01): 4.71 | pKd (HLA-B*15:01 [5]): 6.17 | pKd (HLA-A*30:01): 5.18

Sequence: GLLLLLLLLG
pKd (HLA-A*02:02; [17]): 6.34 | pKd (HLA-A*02:01 [3]; [17]): 6.77 | pKd (HLA-A*68:02; [17]): 5.75 | pKd (HLA-A*02:06; [17]): 6.38 | pKd (HLA-A*02:03 [1]; [17]): 6.48

Sequence: GTSGSPIVNR
pKd (HLA-B*57:01; [15]): 6.98

Sequence: HGFRFEVKK
pIC50 (HLA-A*03:01 [6]; [18]): 5.66 | pIC50 (HLA-A*11:01 [8]; [18]): 7.06

Sequence: IALGVATAH
pIC50 (HLA-A*03:01 [6]; [18]): ≤ 3.79 | pIC50 (HLA-A*02:01 [7]; [18]): ≤ 3.65 | pIC50 (HLA-A*11:01 [8]; [18]): 4.97 | pIC50 (HLA-B*15:01 [9]; [18]): 4.21

Sequence: ILHHHRNVF
pKd (HLA-B*08:01): 7.89 | pKd (HLA-B*15:03): 8.88

pKd (HLA-A*02:01 [10]): ≤ 4.70 | pKd (HLA-A*69:01): ≤ 4.70 | pKd (HLA-A*02:03 [11]): ≤ 4.70
Sequence: IRVEGNLRV

Sequence: ITKGRISDR
pIC50 (HLA-A*03:01 [6]; [19]): 4.18 | pIC50 (HLA-A*11:01 [8]; [19]): ≤ 3.87

Sequence: KFMAILQHH
pIC50 (HLA-A*03:01 [6]; [18]): ≤ 3.52 | pIC50 (HLA-A*24:02; [18]): 4.78 | pIC50 (HLA-B*15:01 [9]; [18]): ≤ 3.49

Sequence: KNKLYLVDY
pIC50 (HLA-B*15:01 [9]; [14]): 4.47

Sequence: KTIYAVDSF
pKd (HLA-B*08:01): ≤ 4.50 | pKd (HLA-B*15:03): 6.49 | pKd (HLA-A*32:01): 8.17 | pKd (HLA-B*15:01 [5]): 8.39 | pKd (HLA-A*30:01): 5.86

Sequence: LLTACTIFYI
pKd (HLA-A*02:02; [14]): 8.57 | pKd (HLA-A*68:02; [14]): 6.64 | pKd (HLA-A*02:06; [14]): 7.25 | pKd (HLA-B*35:01): ≤ 4.16 | pKd (HLA-B*51:01; [14]): ≤ 4.16 | pKd (HLA-B*53:01): ≤ 4.66 | pKd (HLA-B*54:01): ≤ 4.56 | pKd (HLA-A*33:01): 5.13 | pKd (HLA-B*07:02): ≤ 4.16 | pKd (HLA-A*02:03 [1]; [14]): 7.93

Sequence: LMLCLHHAY
pIC50 (HLA-A*02:01 [7]; [18]): 4.42 | pIC50 (HLA-B*15:01 [9]; [18]): 4.65

Sequence: MAISGDDCV
pKd (HLA-A*68:02; [13]): 7.18 | pKd (HLA-B*51:01; [13]): 4.76

Sequence: MILVPLITV
pKd (HLA-A*02:02; source organism: Variola virus): 6.86 | pKd (HLA-A*02:01 [3]; source organism: Variola virus): 7.84 | pKd (HLA-A*68:02; source organism: Variola virus): 9.56 | pKd (HLA-A*02:06; source organism: Variola virus): 8.59 | pKd (HLA-A*02:03 [1]; source organism: Variola virus): 7.53

Sequence: MIRILIGFLV
pKd (HLA-A*68:02; [20]): 6.53

Sequence: MMIQTRAAD
pIC50 (HLA-A*02:01 [7]; [21]): ≤ 3.98 | pIC50 (HLA-B*15:01 [9]; [21]): ≤ 4.11

Sequence: NMFNISFRF
pKd (HLA-B*08:01): 5.81 | pKd (HLA-B*15:03): 7.73 | pKd (HLA-A*32:01): 8.44 | pKd (HLA-B*15:01 [5]): 7.36 | pKd (HLA-A*30:01): 7.57

Sequence: NTFVLKKEV
pKd (HLA-A*68:02; [22]): 7.09

Sequence: QTNTKATGK
pIC50 (HLA-A*03:01 [6]; [19]): 4.85 | pIC50 (HLA-A*11:01 [8]; [19]): 5.66

Sequence: RKYSDLVPK
pIC50 (HLA-A*03:01 [6]; [19]): 4.31 | pIC50 (HLA-A*11:01 [8]; [19]): 5.38

Sequence: RSLIIVLLF
pKd (HLA-B*08:01): 6.02 | pKd (HLA-B*15:03): 6.65 | pKd (HLA-A*32:01): 6.52 | pKd (HLA-B*15:01 [5]): 6.71 | pKd (HLA-A*30:01): 5.63

Sequence: SLPRIALVR
pIC50 (HLA-A*03:01 [6]; source organism: Variola virus): 6.11 | pIC50 (HLA-A*11:01 [8]; source organism: Variola virus): 6.39

Sequence: SQGREAAVS
pIC50 (HLA-B*15:01 [9]; [18]): 4.57

Sequence: SQIPSSSPT
pIC50 (HLA-A*02:01 [7]; [19]): 4.52 | pIC50 (HLA-B*15:01 [9]; [19]): 5.07

Sequence: SSYYATSYL
pIC50 (HLA-A*03:01 [6]; [19]): 4.73 | pIC50 (HLA-A*02:01 [7]; [19]): 5.50 | pIC50 (HLA-A*24:02; [19]): 6.02 | pIC50 (HLA-A*11:01 [8]; [19]): 5.57 | pIC50 (HLA-B*15:01 [9]; [19]): 4.62

Sequence: TIIGTNGNH
pIC50 (HLA-B*15:01 [9]; [19]): ≤ 3.82

Sequence: TTRLENVMW
pKd (HLA-B*57:01; [20]): 7.84

Sequence: TTRMENLLW
pKd (HLA-B*57:01; [22]): 8.28

Sequence: TTSQKTTWLP
pKd (HLA-B*57:01; [15]): 6.35

Sequence: TYTILNRKA
pIC50 (HLA-A*03:01 [6]; [19]): ≤ 4.02 | pIC50 (HLA-A*24:02; [19]): 4.66 | pIC50 (HLA-A*11:01 [8]; [19]): ≤ 4.05

Sequence: VVRLLTKPW
pKd (HLA-B*57:01; [13]): 7.55
